The values below are quoted from earlier work in article PMC4041007.

The target of one data set is KACL (Homo sapiens) (UniProt Q6UVW9).
The next data set addresses LLT1 (Homo sapiens) (UniProt Q9UHP7).
Sequence of UniProt Q9UHP7 (Q9UHP7 whole entry): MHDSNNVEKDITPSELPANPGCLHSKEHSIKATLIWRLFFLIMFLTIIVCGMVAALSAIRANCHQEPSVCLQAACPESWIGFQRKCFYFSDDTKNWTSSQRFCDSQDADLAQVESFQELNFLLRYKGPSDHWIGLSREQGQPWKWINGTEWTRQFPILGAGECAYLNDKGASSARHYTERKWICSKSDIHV

Sequence of UniProt Q6UVW9 (Q6UVW9 whole entry): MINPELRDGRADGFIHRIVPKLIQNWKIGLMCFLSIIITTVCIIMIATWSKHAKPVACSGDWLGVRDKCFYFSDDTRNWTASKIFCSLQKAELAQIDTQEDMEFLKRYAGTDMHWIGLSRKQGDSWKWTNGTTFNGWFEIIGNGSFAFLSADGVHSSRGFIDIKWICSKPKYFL

A word on the Kd: it is the equilibrium constant for the complex coming apart. On to NKp65 (from UniProt D3W0D1), for which, in the data set with KACL (Homo sapiens), the Kd is 0.002 µM.

In the case of NKR-P1A (from UniProt Q12918), in the data set with LLT1 (Homo sapiens), the Kd is 50 µM.
